The values below come from US7745574B2, “Compounds that regulate apoptosis” (The Burnham Institute, priority 2005, dated 2010).

“Also recorded” adds a separate entry of the source. Where no end group is shown, it is not given here. [ ]: non-standard residue; d: D form. Ahx = NCCCCCC(=O)O

Assay [1] can be described thus: Induction of apoptosis by Nur77 peptides, cell line not stated. It is filed as cell-based. Here is the method:
Apoptosis assays—For nuclear morphological change analysis, cells were trypsinized, washed with PBS, fixed with 3.7% paraformaldehyde, and stained with DAPI (4,6-diamidino-2-phenylindole) (50 μg/ml) to visualize the nuclei by UV-microscopy. The percentages of apoptotic cells were determined by counting 300 GFP-positive cells, scoring cells having nuclear fragmentation and/or chromatin condensation.

Another assay deals with T1, Bfl-1 (Homo sapiens, UniProt Q16548).
T1 construct: expressed in transfected cells; host or cells: HEK293T
T1 sequence (Q16548 1-175): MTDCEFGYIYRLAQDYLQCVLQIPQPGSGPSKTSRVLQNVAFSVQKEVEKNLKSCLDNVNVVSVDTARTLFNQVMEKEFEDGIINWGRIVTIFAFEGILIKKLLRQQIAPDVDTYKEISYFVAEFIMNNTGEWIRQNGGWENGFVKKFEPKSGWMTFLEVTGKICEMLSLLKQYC
The assay can be described thus: Co-immunoprecipitation with myc-tagged Bfl-1 in HEK293T cells. It is filed as binding. The method, then:
(§1) Nur77 peptide binds anti-apoptotic Bcl-2 family members. Nur77-peptide binds Bcl-B, Bfl-1, and Bcl-2, but not Mcl-1 and Bcl-xL. […] The expression vector for the GFP-Nur77/489-497 fusion was transfected into HEK293T cells together with or without the indicated expression vector for myc-tagged Bcl-2 family member. Cell lysates were prepared and analyzed for interaction of Nur77/489-497 with Bcl-2 family members by co-immunoprecipitation assay using anti-Myc antibody. Immunoprecipitates were then separated on SDS/PAGE and immunoblotted using anti-GFP antibody. […] Nur77/Bcl-2 interaction assays—Reporter gene assays using NurRE-tk-CAT in CV-1 cells, and GST pull-down assay were described previously (Li, et al. 2000 Science 289:1159-1164). For the mammalian two-hybrid assays, CV-1 cells were co-transfected with pcDNA-Gal4TAD-Nur77 or pcDNA-Gal4TAD-Nur77/ΔDBD and pcDNA-Gal4 DBD-Bcl-2/ΔTM along with a luciferase reporter gene driven by four copies of the Gal-4-binding site. The cells were harvested and reporter gene activity was measured. […] Immunoreactive products were detected by chemiluminescence with an enhanced chemiluminescence system (ECL) (Amersham).

Another assay addresses Mcl-1 (Homo sapiens, UniProt Q07820). As to the kind of experiment: Co-immunoprecipitation with myc-tagged Mcl-1 in HEK293T cells. It is filed as binding. The method, then:
as §1

Assay [2] deals with T2, Bcl-2 (Homo sapiens, UniProt P10415). The assay can be described thus: Co-immunoprecipitation with Bcl-2 in HEK293T cells. It is filed as binding. Also noted: expressed in transfected cells; host or cells: HEK293T. Here is the method: as §1, with “measured. For Co-IP assays, HEK293T cells were transiently transfected with various expression plasmids using a modified calcium phosphate precipitation method (Wu et al, 1997) in the presence of caspase inhibitors (zVAD-fmk) to prevent degradation of Nur77 protein due to apoptosis. Cells were suspended in lysis buffer (50 mM Tris-HCl, PH7.4; 150 mM NaCl; 20 mM EDTA; 1% NP-40; 1 mM PMSF; 50 μg/ml Leupeptin; […]; 0.1 mM Na3VO4; and 1 mM DTT). Cells extracts were cleared by incubation with the Protein A/G plus Agarose beads (Santa Cruz) and then incubated with appropriate antibody and 30 μl of Protein A or G plus Agarose beads overnight at 4° C.” for “measured.”
Target sequence in this assay (P10415 whole entry): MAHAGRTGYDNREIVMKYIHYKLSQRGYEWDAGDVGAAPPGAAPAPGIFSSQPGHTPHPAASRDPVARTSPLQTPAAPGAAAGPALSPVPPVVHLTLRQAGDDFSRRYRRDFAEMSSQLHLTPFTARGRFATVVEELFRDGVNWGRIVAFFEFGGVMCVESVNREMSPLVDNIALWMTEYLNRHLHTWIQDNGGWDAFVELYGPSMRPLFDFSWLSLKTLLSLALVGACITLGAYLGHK

A further assay deals with T3, Bcl-B (Homo sapiens, UniProt Q9HD36).
T3 construct: expressed in transfected cells; host or cells: HEK293T
T3 sequence (Q9HD36 1-204): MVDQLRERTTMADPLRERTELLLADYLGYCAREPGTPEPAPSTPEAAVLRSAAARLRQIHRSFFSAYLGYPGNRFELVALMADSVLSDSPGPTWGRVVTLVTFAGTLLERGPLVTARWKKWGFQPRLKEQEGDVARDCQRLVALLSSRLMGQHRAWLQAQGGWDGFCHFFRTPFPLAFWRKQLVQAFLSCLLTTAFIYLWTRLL
The assay can be described thus: Co-immunoprecipitation with myc-tagged Bcl-B in HEK293T cells. It is filed as binding. The method, then:
as §1

A further assay has as its system mitochondria. The assay can be described thus: Subcellular localization, colocalization with RFP-Mito. It is filed as cell-based. The method, then: Subcellular localization assays—Cells were seeded onto cover-slips in 6-well plates overnight, then transiently transfected with GFP-fusion expression plasmids. After 16 hours, cells were washed with PBS and fixed in 4% paraformaldehyde. […] For cyt c staining, cells were incubated with monoclonal anti-cyt c IgG (PharMingen), followed by anti-mouse IgG conjugated with Cy5 (Amersham). Fluorescent images were collected and analyzed using a MRC-1024 MP laser-scanning confocal microscope (Bio-Rad). Subcellular fractionation assays were performed as described (Li, et al. 2000 Science 289:1159-1164). Briefly, cells (1×10^7 cells) suspended in 0.5 ml hypotonic buffer (5 mM Tris-HCl, pH 7.4, 5 mM KCl, 1.5 mM MgCl2, 0.1 mM EGTA, pH 8.0, and 1 mM DTT) were homogenized and cell extracts were centrifuged at 500×g for 5 min. The resulting supernatant was centrifuged at 10,000×g for 30 min at 4° C. to obtain the HM fraction. HM fraction was resuspended in 100 μl lysis buffer (10 mM Tris, pH 7.4, 150 mM NaCl, 1% Triton X-100, 5 mM EDTA, pH 8.0) for immunoblotting analysis.

The target of another assay is Bcl-XL (Homo sapiens, UniProt Q07817). As to the kind of experiment: Co-immunoprecipitation with myc-tagged Bcl-XL in HEK293T cells. It is filed as binding. The method, then: as §1
In assay [3] the target is T2, Bcl-2. The assay can be described thus: Bcl-2 conformational change, anti-Bcl-2/BH3 antibody staining of HEK293T cells transfected with Bcl-2. It is filed as cell-based. Also noted: expressed in transfected cells; host or cells: HEK293T. Here is the method: Such a Bcl-2 conformation is recognized by an anti-Bcl-2 antibody raised against the Bcl-2 BH3 domain. To determine whether NuBCP-9 induced a Bcl-2 conformational change, flow cytometric assays were conducted which HEK293T cells transfected with Bcl-2 were exposed to NuBCPs and subsequently stained with the anti-Bcl-2/BH3 antibody.
Target sequence in this assay (P10415 whole entry): as the sequence (P10415 whole entry) above

The subject of a further assay is breast cancer. As to the kind of experiment: Treatment of a patient diagnosed with breast cancer. As to conditions: intravenous dose at regular intervals over six weeks. It is filed as in vivo. From the text: A patient diagnosed with breast cancer is selected for treatment with the D-NuBCP-9-r8 peptide. The patient is given a therapeutically effective intravenous dose of the peptide at regular intervals over a six week period. Following the end of the treatment period it is observed that the breast cancer has regressed.

The target in assay [4] is T2, Bcl-2. The assay can be described thus: Competition assay of Nur77/ΔDBD binding with Bcl-2. Also noted: expressed in transfected cells; host or cells: HEK293T. The method, then: Nur77/Bcl-2 interaction assays—Reporter gene assays using NurRE-tk-CAT in CV-1 cells, and GST pull-down assay were described previously (Li, et al. 2000 Science 289:1159-1164). For the mammalian two-hybrid assays, CV-1 cells were co-transfected with pcDNA-Gal4TAD-Nur77 or pcDNA-Gal4TAD-Nur77/ΔDBD and pcDNA-Gal4 DBD-Bcl-2/ΔTM along with a luciferase reporter gene driven by four copies of the Gal-4-binding site. The cells were harvested and reporter gene activity was measured. For Co-IP assays, HEK293T cells were transiently transfected with various expression plasmids using a modified calcium phosphate precipitation method (Wu et al, 1997) in the presence of caspase inhibitors (zVAD-fmk) to prevent degradation of Nur77 protein due to apoptosis. Cells were suspended in lysis buffer (50 mM Tris-HCl, PH7.4; 150 mM NaCl; 20 mM EDTA; 1% NP-40; 1 mM PMSF; 50 μg/ml Leupeptin; […] Aprotinin; 0.1 mM Na3VO4; and 1 mM DTT). Cells extracts were cleared by incubation with the Protein A/G plus Agarose beads (Santa Cruz) and then incubated with appropriate antibody and 30 μl of Protein A or G plus Agarose beads overnight at 4° C. […] Immunoreactive products were detected by chemiluminescence with an enhanced chemiluminescence system (ECL) (Amersham).
Target sequence in this assay (P10415 whole entry): as the sequence (P10415 whole entry) above

Assay [5] relates to H460 lung cancer cells. The assay can be described thus: Apoptosis in H460 lung cancer cells. It is filed as cell-based. As to conditions: H460 cells; peptides conjugated with CPP, 10 μM.
In assay [6] the test system is MDA-MB435 breast carcinoma cells. As to the kind of experiment: MDA-MB435 tumors in SCID mice. It is filed as in vivo. The method, then: Animal studies. Female SCID mice (6-week-old) (Tacomic) were injected with 10^6 MDA-MB435 breast carcinoma cells. Tumors were palpable on day 7. On days 10 and 13, test peptides (620 μg in 50 μL PBS) were injected into the tumor areas of 5 mice. Tumor volumes (1×w^2) were determined using calipers. No weight changes were observed. Established tumors in control mice were injected with test peptides and tumor tissues were excised and sectioned after 3 days. Tissues were fixed (10% buffered formalin), then rapidly paraffin-embedded. Apoptosis was detected by the TUNEL assay.

For assay [7], the target named is T2, Bcl-2. As to the kind of experiment: Immunoprecipitation of endogenous Bcl-2 by anti-Bcl-2/BH3 antibody in treated cells. It is filed as cell-based. Also noted: precipitated endogenous Bcl-2 in cells treated with L-NuBCP-9-r8 or D-NuBCP-9-r8; endogenous in cells.
Target sequence in this assay (P10415 whole entry, species assumed): as the sequence (P10415 whole entry) above
For assay [8], the system named is H460 lung cancer cells. The assay can be described thus: Apoptosis in H460 lung cancer cells. It is filed as cell-based. Here is the method:
Bcl-2 siRNAs and antisense oligonucleotides-The target siRNA SMARTpools for Bcl-2 and Bak and the siRNA oligonucleotide for Nur77 (5'-[…] NO: 67) were purchased from Dharmacon Research Inc. Target or control siRNA were transfected at a final concentration of 200 nM into cells at 40% confluency using Oligofectamine reagent (Invitrogen) according to the manufacturer's recommendations. After 48 h, cells were analyzed. Bcl-2 antisense oligonucleotide targeting Bcl-2 and negative control oligonucleotides were obtained from Calbiochem. […] The percentages of apoptotic cells were determined by counting 300 GFP-positive cells, scoring cells having nuclear fragmentation and/or chromatin condensation. Cell culture. […] HEK293T embryonic kidney cells were grown in DME medium supplemented with 10% FBS. Jurkat and Jurkat cells stably expressing Bcl-2 were kindly provided by Dr. John Reed, and they were maintained in RPMI1640 medium.

Sequence of Bcl-XL (Q07817 whole entry, species assumed, the tested form may be a part): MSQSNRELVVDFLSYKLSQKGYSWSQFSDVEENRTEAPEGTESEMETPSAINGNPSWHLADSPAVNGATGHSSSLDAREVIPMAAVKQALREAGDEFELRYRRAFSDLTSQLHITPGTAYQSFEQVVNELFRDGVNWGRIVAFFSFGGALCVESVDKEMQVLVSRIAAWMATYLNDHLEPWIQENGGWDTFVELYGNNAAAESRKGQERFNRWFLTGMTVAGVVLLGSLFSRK
Sequence of Mcl-1 (Q07820 whole entry, species assumed): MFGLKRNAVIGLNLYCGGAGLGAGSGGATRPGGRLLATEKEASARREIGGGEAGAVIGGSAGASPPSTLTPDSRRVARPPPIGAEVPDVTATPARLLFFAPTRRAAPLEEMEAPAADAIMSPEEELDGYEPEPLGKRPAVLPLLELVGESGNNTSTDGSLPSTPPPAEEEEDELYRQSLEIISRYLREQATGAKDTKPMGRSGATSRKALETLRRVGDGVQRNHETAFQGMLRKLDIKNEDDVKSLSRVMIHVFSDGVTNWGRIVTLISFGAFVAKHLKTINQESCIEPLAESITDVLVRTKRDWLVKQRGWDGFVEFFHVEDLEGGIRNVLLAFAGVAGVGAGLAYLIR

“GFP-Nur77/489-497: NuBCP-9 (Nur77/489-497) sequence cloned as a green fluorescence protein (GFP) fusion (FSRSLHSLL; also: fused to GFP)”: the induction of apoptosis result in assay [1] was “apoptotic”. Besides, the “interaction with Bfl-1 by co-immunoprecipitation” value with Bfl-1 was “interacts”. Besides, the “interaction with Mcl-1 by co-immunoprecipitation” value with Mcl-1 is on record as “not”. In addition, the “interaction with Bcl-2 by co-immunoprecipitation” value with Bcl-2 [2] is reported as “precipitated by anti-Bcl-2 antibody only when Bcl-2 was co-expressed; also recorded: interacts”. For the same substance, in the assay with Bcl-B, the “interaction with Bcl-B by co-immunoprecipitation” value was “interacts”. Further, the “colocalization with RFP-Mito” value in the assay with mitochondria was “colocalized extensively”. Besides, the “interaction with Bcl-XL by co-immunoprecipitation” value in the assay with Bcl-XL is on record as “not”.
On to “acetyl------------fsrslhsllGXrrrrrrrr-amide (Ac-[dF][dS][dR][dS][dL][dH][dS][dL][dL]G[Ahx][dR][dR][dR][dR][dR][dR][dR][dR]-NH2; SMILES CC(=O)N[C@H](Cc1ccccc1)C(=O)N[C@H](CO)C(=O)N[C@H](CCCNC(=N)N)C(=O)N[C@H](CO)C(=O)N[C@H](CC(C)C)C(=O)N[C@H](Cc1c[nH]cn1)C(=O)N[C@H](CO)C(=O)N[C@H](CC(C)C)C(=O)N[C@H](CC(C)C)C(=O)NCC(=O)NCCCCCC(=O)N[C@H](CCCNC(=N)N)C(=O)N[C@H](CCCNC(=N)N)C(=O)N[C@H](CCCNC(=N)N)C(=O)N[C@H](CCCNC(=N)N)C(=O)N[C@H](CCCNC(=N)N)C(=O)N[C@H](CCCNC(=N)N)C(=O)N[C@H](CCCNC(=N)N)C(=O)N[C@H](CCCNC(=N)N)C(N)=O) [D-NuBCP-9-r8]”, for which, in the assay with Bcl-2 [3] (flow cytometry), the “Bcl-2 immunofluorescence by anti-Bcl-2/BH3 antibody” value is on record as “strong Bcl-2 immunofluorescence”. In the assay with Bcl-2 [3] (fluorescence microscopy), the “Bcl-2 staining by anti-Bcl-2/BH3 antibody” value was “strongly stained”. Moreover, the “breast cancer outcome after treatment” value with breast cancer is “regressed”. Also, the “binding of Nur77/ΔDBD with Bcl-2 in presence of peptide” value with Bcl-2 [4] was “abrogated”. The apoptotic effect result with H460 lung cancer cells [5] is “retained and even slightly enhanced”. In addition, in assay [6] (SCID mice, 620 μg injected into tumor areas on days 10 and 13, vs control NuBCP-9/AA-r8), the growth of tumors result was “dramatically suppressed”. Also, the “apoptosis of tumor cells in vivo” value in [6] (TUNEL assay) is reported as “potently induced”. Also, the “precipitation of endogenous Bcl-2 by anti-Bcl-2/BH3 antibody” value in the assay with Bcl-2 [7] is reported as “precipitated”. The “apoptotic function after Bcl-2 antisense oligonucleotides” value in the assay with H460 lung cancer cells [8] (Bcl-2 antisense oligonucleotides) was “attenuated”. The “apoptotic effect after transfection of Bcl-2 siRNA” value with H460 lung cancer cells [8] (H460 cells, Bcl-2 siRNA vs control GFP siRNA) is on record as “inhibited”.
